Test results from PMC9262907, “Modulating mitofusins to control mitochondrial function and signaling” (Nature Communications, 2022).
Blank lines part the entries; values can stand above or below the binder they belong to. Where no end group is shown, it is not given here.

Key:
[1] = target: the molecule itself; experiment: native gel or EMSA; BN-PAGE of digitonin lysates of mitochondria isolated from MEFs, without GTP; blot with anti-MFN2
[2] = target: T1, MFN2-HR2 domain (residues 678–757) (human, UniProt O95140 678-757); experiment: MST
T1 chain: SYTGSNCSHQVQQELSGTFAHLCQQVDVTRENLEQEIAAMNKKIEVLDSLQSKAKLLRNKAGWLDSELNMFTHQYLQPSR

B1: mitofusin-2 (MFN2) of MEF mitochondria (natural protein, mouse (endogenous in MEFs), UniProt Q80U63 1-757, looked up)
chain: MSLLFSRCNSIVTVKKDKRHMAEVNASPLKHFVTAKKKINGIFEQLGAYIQESASFLEDTHRNTELDPVTTEEQVLDVKGYLSKVRGISEVLARRHMKVAFFGRTSNGKSTVINAMLWDKVLPSGIGHTTNCFLRVGGTDGHEAFLLTEGSEEKKSVKTVNQLAHALHQDEQLHAGSMVSVMWPNSKCPLLKDDLVLMDSPGIDVTTELDSWIDKFCLDADVFVLVANSESTLMQTEKQFFHKVSERLSRPNIFILNNRWDASASEPEYMEEVRRQHMERCTSFLVDELGVVDRAQAGDRIFFVSAKEVLSARVQKAQGMPEGGGALAEGFQVRMFEFQNFERQFEECISQSAVKTKFEQHTVRAKQIAEAVRLIMDSLHIAAQEQRVYCLEMREERQDRLRFIDKQLELLAQDYKLRIKQITEEVERQVSTAMAEEIRRLSVLVDEYQMDFHPSPVVLKVYKNELHRHIEEGLGRNLSDRCSTAIASSLQTMQQDMIDGLKPLLPVSMRNQIDMLVPRQCFSLSYDLNCDKLCADFQEDIEFHFSLGWTMLVNRFLGPKNSRRALLGYSDQVQRPLPLTPANPSMPPLPQSSLTQEELMVSMVTGLASLTSRTSMGILVVGGVVWKAVGWRLIALSFGLYGLLYVYERLTWTTKAKERAFKRQFVEYASEKLQLIISYTGSNCSHQVQQELSGTFAHLCQQVDITRDNLEQEIAAMNKKVEALDSLQSRAKLLRNKAGWLDSELNMFTHQYLQPSR
notes: mitofusin-2 (MFN2), endogenous in mouse embryonic fibroblasts, detected with an anti-MFN2 antibody; source: endogenous, mitochondria isolated from MEFs, digitonin lysate
stoichiometry N [1]: 2

Kd [2]: 1500 nM
Binder: QDRLKFIDKQLELLAQDYKLR (also: 'Gly' in name not defined) [398–418Gly peptide]

Kd [2]: 3000 nM
Binder: QIAEAVRLIMDSLHMAAR (also: 'Gly' in name not defined) [367–384Gly peptide]
